In test [1] the target is T1, IL-2 receptor β subunit chain (UniProt P14784 27-551).
T1 construct: whole, on cells; also called β chain; IL-2R β
T1 sequence (looked up): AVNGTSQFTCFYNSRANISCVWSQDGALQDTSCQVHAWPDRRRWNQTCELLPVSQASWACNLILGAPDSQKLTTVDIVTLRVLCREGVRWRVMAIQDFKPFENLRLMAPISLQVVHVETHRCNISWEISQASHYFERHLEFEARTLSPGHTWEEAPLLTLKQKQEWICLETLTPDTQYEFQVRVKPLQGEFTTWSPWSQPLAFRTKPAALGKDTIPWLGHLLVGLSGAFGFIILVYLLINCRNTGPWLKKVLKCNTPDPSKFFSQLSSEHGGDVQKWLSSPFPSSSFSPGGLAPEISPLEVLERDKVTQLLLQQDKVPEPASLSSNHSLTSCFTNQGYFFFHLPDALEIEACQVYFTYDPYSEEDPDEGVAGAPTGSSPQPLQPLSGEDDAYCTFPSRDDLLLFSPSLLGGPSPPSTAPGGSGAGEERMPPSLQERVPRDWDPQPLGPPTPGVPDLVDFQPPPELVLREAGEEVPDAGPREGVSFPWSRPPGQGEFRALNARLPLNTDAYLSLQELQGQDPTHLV
As to the kind of experiment: transiently transfected 293T cells, control experiment.

Test [2] has as its target T2, IL-2 receptor γ subunit chain (UniProt P31785 23-369).
T2 construct: whole, on cells; also called γ chain; IL-2R γ
T2 sequence (looked up): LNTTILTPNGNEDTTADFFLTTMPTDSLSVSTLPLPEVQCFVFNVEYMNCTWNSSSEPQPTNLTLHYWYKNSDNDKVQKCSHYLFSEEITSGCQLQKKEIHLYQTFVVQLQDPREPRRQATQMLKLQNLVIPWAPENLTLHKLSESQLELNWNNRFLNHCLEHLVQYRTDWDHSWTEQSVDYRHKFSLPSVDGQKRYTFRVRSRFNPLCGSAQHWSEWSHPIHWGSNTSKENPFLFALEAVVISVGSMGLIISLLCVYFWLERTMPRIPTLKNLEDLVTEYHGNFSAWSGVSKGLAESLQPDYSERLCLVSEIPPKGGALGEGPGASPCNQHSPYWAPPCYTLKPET
The description is as above.

Test [3] concerns the target T3, CD25 (TAC), the α chain of IL-2 receptor (UniProt P01589 22-272, limits assumed).
T3 construct: whole, on cells; also called IL-2Rα; α subunit chain
T3 sequence (looked up): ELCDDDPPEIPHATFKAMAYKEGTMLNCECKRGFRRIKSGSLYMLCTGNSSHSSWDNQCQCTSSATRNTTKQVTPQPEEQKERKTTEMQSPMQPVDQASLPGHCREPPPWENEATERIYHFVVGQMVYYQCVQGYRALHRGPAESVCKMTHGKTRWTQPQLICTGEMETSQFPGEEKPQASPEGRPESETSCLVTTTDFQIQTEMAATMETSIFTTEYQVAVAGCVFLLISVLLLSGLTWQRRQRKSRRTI
The test is described as above.

For test [4], the target named is T4, IL-2 receptor (IL-2R) complex of α, β and γ chains (UniProt P01589 22-272; P14784 27-551; P31785 23-369).
T4 construct: whole, on cells; co-expressed on transiently transfected 293T cells in the control experiment; also called IL-2Rs; the complex
T4 sequence (looked up) 1: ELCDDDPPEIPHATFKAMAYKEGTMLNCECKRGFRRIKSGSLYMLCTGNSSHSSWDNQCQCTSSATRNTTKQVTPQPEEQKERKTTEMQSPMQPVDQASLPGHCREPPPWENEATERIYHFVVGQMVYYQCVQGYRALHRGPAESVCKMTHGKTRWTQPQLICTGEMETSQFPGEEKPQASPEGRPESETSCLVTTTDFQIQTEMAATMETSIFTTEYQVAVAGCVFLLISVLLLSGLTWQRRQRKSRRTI
T4 sequence (looked up) 2: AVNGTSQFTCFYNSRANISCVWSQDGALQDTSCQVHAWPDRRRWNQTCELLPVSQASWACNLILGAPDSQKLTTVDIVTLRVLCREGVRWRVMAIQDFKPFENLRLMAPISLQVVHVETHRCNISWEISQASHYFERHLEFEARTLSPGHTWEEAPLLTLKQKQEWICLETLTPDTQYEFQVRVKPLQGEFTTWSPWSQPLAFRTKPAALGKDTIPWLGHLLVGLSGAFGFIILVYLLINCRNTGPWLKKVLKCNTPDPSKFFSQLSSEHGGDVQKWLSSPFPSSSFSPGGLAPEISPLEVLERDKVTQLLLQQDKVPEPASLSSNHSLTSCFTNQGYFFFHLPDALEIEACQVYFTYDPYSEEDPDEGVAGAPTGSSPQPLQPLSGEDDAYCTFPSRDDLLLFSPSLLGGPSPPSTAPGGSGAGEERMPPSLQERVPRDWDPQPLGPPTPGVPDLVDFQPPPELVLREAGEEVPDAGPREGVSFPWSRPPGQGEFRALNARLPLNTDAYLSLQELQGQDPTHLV
T4 sequence (looked up) 3: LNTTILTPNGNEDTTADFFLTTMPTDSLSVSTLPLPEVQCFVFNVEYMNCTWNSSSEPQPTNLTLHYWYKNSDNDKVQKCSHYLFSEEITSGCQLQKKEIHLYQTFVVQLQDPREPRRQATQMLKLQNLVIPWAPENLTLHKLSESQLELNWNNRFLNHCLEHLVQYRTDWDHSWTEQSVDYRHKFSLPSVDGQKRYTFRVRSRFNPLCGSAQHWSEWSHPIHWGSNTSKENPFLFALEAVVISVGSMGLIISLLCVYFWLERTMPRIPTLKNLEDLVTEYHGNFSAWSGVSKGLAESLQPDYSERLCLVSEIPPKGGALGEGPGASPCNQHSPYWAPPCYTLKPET
Described as above.

Test [5] has as its target T5, CC chemokine receptor 4 (CCR4) (human, UniProt P51679 1-360).
T5 construct: whole, on cells; Endogenous CCR4 on human T cell subsets and Mac-1 cells
T5 sequence (looked up): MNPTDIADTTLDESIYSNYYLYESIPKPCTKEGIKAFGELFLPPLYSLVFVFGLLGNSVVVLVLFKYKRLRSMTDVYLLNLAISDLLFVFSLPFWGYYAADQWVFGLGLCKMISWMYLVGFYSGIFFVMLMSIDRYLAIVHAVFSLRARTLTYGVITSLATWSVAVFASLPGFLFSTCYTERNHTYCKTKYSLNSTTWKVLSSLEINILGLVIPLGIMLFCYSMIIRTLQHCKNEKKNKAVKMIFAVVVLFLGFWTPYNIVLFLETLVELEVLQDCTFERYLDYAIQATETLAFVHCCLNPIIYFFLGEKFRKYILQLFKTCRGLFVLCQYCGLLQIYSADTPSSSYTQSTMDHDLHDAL
As to the kind of experiment: depletion of CCR4+ tumor-primed T cells with antibody-conjugated beads, checked by flow cytometry. How it is done: FIG. 4. The activity of tumor-primed T cells on IGROV-1 cells. (A) Tumor-primed T cells were stained by anti-CD3, CD4, CD8, CD25 and (B) CCR4 antibodies. CCR4-depleted tumor-primed T cells by mAb2-3-conjugated beads and T cell subsets in tumor-primed T cells were analyzed by flow cytometry. (C) Tumor-primed T cells and mAb2-3-depleted tumor-primed T cells were incubated with IGROV-1 cells for 24 and 48 hours and then the supernatant were harvested and detected the expression level of IFN-γ. […] (D) Intracellular IFN-γ staining of CD4 and CD8 T cells from coculture. Cells were harvested at 48 hours post-coculture; incubated for 6 h in the presence of brefeldin A; stained for CD3, CD4, and CD8; fixed in paraformaldehyde; permeabilized; and stained for intracellular IFN-γ. The cells were gated on lymphocytes by size and CD markers and analyzed by flow cytometry. (E) The cytotoxic activities of tumor-primed T cells and mAb2-3-depleted tumor primed T cells were further detected by LDH ELISA assay. All experiments represented triplicates in each time point with the means±S.D. and performed in two independent experiments. *, **, and *** represents student's t-test p value<0.05, 0.01, and 0.005, respectively.
To establish an OvCA xenograft bearing humanized mouse model, IGROV-1-specific T cells in vitro were created that could be tested subsequently for in vivo immunotherapy. […]

B1: mAb2-3 (isotype not stated for the experiment) (antibody, V domains shown)
VH: QVQLVQSGAEVKKPGASVKVSCKASGYTFASAWMHWMRQAPGQGLEWIGWINPGNVNTKYNEKFKGRATLTVDTSTNTAYMELSSLRSEDTAVYYCARSTYYRPLDYWGQGTLVTVSS
VL: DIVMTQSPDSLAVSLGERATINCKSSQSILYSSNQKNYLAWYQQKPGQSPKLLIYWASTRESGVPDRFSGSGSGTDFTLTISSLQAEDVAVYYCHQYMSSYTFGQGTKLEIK
On to B1, for which the binding result was “no binding” in test [1]; “no binding” in test [2]; “no binding” in test [3]; “no binding” in test [4]; “binds” in test [5].

These data come from US20200369775A1 (Dana-Farber, published 2020).
